Measured values: patent publication US20080201790A1, “Method and product for regulating cell responsiveness to external signals” (priority 1993, published 2008)

Key:
Format in all cases: cell-based
JNK/SAPK = JNK/SAPK activity in Swiss 3T3 clones with inducible MEKKCOOH; conditions: 17 hours IPTG induction
Protocol: JNK/SAPK: Activity was measured using GST (glutathione S-transferase)—c-Jun (1-79) BOUND to glutathione-Sepharose-4B (Hibi et al. supra). Cells expressing MEKKCOOH or control cells were lysed in 0.5% Nonidet P40 (NP40), 20 mM Tris-HCl, pH 7.6, 0.25 NaCl, 3 mM EDTA, 3 mM EGTA, 1 mM dithiothreitol, 1 mM phenylmethylsulfonyl fluoride, 2 mM sodium vanadate, 20 μg/ml aprotinin and 5 μg/ml leupeptin. Lysates were centrifuged at 15,000×g for 10 min to remove nuclei and supernatants (25 μg protein) mixed with 10 μl of GST-c-JUN(1-79)-Sepharose (3-5 μg of GST-c-Jun(1-79)). The mixture was rotated at 4° C. for 1 hr, washed 2× in lysis buffer and 1× in kinase buffer (20 mM Hepes, pH 7.5, 10 mM MgCl2, 20 mM β-glycerophosphate, 10 mM p-nitrophenyl phosphate, 1 mM dithiothreitol, 50 μM sodium vanadate). Beads were suspended in 40 μl of kinase buffer with 10 μCi Of [γ^32P] ATP and incubated at 30° C. for 20 min. Samples were boiled in Laemmli buffer and phosphorylated proteins resolved on SDS/10% polyacrylamide gels. To verify the selectivity of the JNK/SAPK assay cell lysates were fractionated by Mono Q ion exchange chromatography and each fraction assayed as described above. Fractions were also immunoblotted with a rabbit antisera recognizing JNK/SAPK. […]

Swiss 3T3 cells [1] = assay: UV-induced apoptosis in Swiss 3T3 clones with IPTG-inducible MEKKCOOH; conditions: two hours after ultraviolet irradiation
Protocol: FIG. 16. Induction of MEKKCOOH expression by IPTG in Swiss 3T3 cells increases the number of condensed cells and stimulates c-Myc transactivation. In panel A, cells were incubated in the presence or absence of 5 mM IPTG for forty eight hours. Cells were stained with acrodine orange and condensed cells quantitated per 1000 cells counted per coverslip. In panel B Swiss 3T3 cells with inducible MEKKCOOH were incubated in the presence or absence of IPTG. The indicated cells were then exposed to UV-C irradiation and then fixed and stained with propidium iodide. The percentage of apoptotic cells was enumerated.
Because stable expression of MEKKCOOH appeared to inhibit clonal expansion of Swiss 3T3 cells under G418 drug selection, clones were isolated having inducible expression of the kinase. The Lac Switch expression system (Stratagene) was used to control the expression of MEKKCOOH. Several independent clones were isolated and their properties analyzed in the presence or absence of IPTG-induced expression of MEKKCOOH. The parental LacR+ clone expressing only the Lac repressor was used as the control. […] This is probably due to a basal level of MEKKCOOH expression in uninduced cells. […] This maybe related to selection of cells during the cloning procedure that adapted to a low, constitutive level of MEKKCOOH expression. […]

p38/Hog1 = p38/Hog1 activity in Swiss 3T3 clones with inducible MEKKCOOH; conditions: 17 hours IPTG induction
ERK = ERK activity in Swiss 3T3 clones with inducible MEKKCOOH; conditions: 17 hours IPTG induction
Swiss 3T3 cells [2] = assay: MEKKCOOH-induced cell death after nuclear microinjection of expression plasmids
Protocol: Swiss 3T3 and REF52 cells were plated on acid-washed glass cover slips in Dulbecco's Modified Eagle's Medium (DMEM) and 10% bovine calf serum (BCS) or newborn calf serum (NCS). Cells were placed in DMEM/0.1% calf serum for overnight incubation prior to microinjection and used for injection at 50-70% confluence. Injections were performed with an Eppendorf automated microinjection system with needles pulled from glass capillaries on a vertical pipette puller (Kopf, Tujunga, Calif.). Cells were injected with pCMVβ-gal in the presence or absence of pCMV5MEKKCOOH or pCMV5BxBRaf at 20-100 ng/μl for each expression plasmid in 100 mM KC1, 5 mM NaPO4, pH 7.3. Following injection cells were placed in 1% NCS for 12-18 hr (Swiss 3T3) or 42 hr (REF52) prior to fixation with paraformaldehyde and staining. Similar results were obtained when cells were placed in 10% NCS after microinjection. Propidium iodide ([…]) was used to stain DNA. X-Gal reactions were performed for six hr.
Swiss 3T3 cells were microinjected with 100 ng/μl pCMVβ-gal and 20 ng/μl pCMV5MEKKCOOH. To label free DNA ends fixed and rehydrated cells were incubated with terminal deoxytransferase (TDT) and 10 nM biotin-dUTP following the manufacturer's instructions (Boehringer-Mannheim). Cells were stained with FITC-streptavidin to label DNA fragments. β-gal was detected using rabbit anti-p-gal antibody (Cappel Labs) and a rhodamine-labeled goat anti-rabbit antibody (Cappel Labs).
Seventeen hours after injection cells were fixed and stained for, β-galactosidase activity with X-Gal. Injected cells attached to the coverslip were scored as positive for cell death when they were highly condensed, small round cells.

B1: MEKKCOOH: a truncated activated form of MEKK1 including the entire kinase domain (protein)
chain: MAMSASQDALPIVPQLQVENGEDIIIIQQDTPETLPGHTKAKQPYREDAEWLKGQQIGLGAFSSCYQAQDVGTGTLMAVKQVTYVRNTSSEQEEVVEALREEIRMMGHLNHPNIIRMLGATCEKSNYNLFIEWMAGGSVAHLLSKYGAFKESVVINYTEQLLRGLSYLHENQIIHRDVKGANLLIDSTGQRLRIADFGAAARLASKGTGAGEFQGQLLGTIAFMAPEVLRGQQYGRSCDVWSVGCAIIEMACAKPPWNAEKHSNHLALIFKIASATTAPSIPSHLSPGLRDVAVRCLELQPQDRPPSRELLKHPVFRTTW
- JNK/SAPK activity (JNK/SAPK): stimulated JNK/SAPK activity
- cells morphologically highly condensed, appearing apoptotic (Swiss 3T3 cells [1]): greater than 30%
- p38/Hog1 activity (p38/Hog1): did not activate either ERK or p38/Hog1 activity
- ERK activity (ERK): did not activate either ERK or p38/Hog1 activity
- Condensed Cells (percent of cells injected) (Swiss 3T3 cells [2]; 100 ng/μl plasmids, seventeen hours after injection, X-Gal): Approximately 84%
- cells with cytoplasmic and nuclear morphology characteristic of apoptosis (Swiss 3T3 cells [2]; 18 hrs postinjection): Greater than 80%
- DNA fragmentation (TDT, biotin-dUTP, streptavidin-FITC) (Swiss 3T3 cells [2]; microinjected Swiss 3T3 cells): significant DNA fragmentation
- induction of cell death on expression (in words) (Swiss 3T3 cells [2]; microinjected Swiss 3T3 cells): resulted in significant cell death
